Measurements as given in patent publication US20160108115 (published 2016).
Substitutions are numbered along the chain they refer to. Read-outs that look alike come from different tables or passages of the source.

How the values were obtained:
human C5 [1] = biological target: T1, human C5 (human, UniProt P01031); assay: SPR
human C5 [2] = biological target: T1, human C5; assay: SPR; remark: listed apart in the source
mouse C5 [3] = biological target: T2, mouse C5 (mouse, UniProt P06684); assay: SPR, pH 6.0
T2 chain 1: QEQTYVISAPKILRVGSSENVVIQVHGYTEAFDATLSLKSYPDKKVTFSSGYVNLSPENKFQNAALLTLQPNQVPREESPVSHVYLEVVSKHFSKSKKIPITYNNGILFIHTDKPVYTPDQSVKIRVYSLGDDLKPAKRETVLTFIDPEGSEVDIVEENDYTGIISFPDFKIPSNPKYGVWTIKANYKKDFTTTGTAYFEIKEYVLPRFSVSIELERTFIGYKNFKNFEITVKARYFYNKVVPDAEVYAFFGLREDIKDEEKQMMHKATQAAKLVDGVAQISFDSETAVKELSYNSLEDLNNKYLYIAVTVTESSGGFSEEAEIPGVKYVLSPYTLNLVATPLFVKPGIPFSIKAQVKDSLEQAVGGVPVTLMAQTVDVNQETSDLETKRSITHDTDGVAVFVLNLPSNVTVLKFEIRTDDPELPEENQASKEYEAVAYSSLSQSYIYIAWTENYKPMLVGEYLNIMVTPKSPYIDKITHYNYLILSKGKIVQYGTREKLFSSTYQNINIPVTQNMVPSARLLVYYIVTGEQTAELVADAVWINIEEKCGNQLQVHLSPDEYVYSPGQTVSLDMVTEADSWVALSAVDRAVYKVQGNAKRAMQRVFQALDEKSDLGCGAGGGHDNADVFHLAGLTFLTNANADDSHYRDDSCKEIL
T2 chain 2: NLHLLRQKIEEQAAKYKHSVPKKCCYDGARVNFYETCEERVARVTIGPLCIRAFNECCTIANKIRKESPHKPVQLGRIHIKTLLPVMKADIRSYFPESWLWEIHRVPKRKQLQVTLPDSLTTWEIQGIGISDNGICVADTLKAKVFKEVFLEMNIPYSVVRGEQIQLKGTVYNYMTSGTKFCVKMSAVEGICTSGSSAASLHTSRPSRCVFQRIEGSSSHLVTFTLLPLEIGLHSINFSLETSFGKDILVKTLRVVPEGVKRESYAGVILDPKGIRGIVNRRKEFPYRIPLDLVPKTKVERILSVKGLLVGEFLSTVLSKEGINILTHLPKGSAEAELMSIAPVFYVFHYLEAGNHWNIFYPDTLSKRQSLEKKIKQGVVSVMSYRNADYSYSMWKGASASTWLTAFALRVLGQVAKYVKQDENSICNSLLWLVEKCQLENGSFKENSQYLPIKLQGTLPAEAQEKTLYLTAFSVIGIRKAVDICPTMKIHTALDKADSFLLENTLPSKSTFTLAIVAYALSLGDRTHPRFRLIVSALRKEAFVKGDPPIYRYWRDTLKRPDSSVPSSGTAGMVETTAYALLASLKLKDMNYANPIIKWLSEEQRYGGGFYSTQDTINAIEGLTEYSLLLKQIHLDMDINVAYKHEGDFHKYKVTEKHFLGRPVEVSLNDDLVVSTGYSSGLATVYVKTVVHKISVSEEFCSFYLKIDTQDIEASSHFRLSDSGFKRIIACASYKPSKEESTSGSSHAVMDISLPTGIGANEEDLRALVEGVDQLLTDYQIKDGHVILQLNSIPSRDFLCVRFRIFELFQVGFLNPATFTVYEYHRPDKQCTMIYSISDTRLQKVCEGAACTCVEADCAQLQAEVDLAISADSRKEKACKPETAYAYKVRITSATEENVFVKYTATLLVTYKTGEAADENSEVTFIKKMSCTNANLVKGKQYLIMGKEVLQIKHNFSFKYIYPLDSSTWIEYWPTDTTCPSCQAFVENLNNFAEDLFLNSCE

mouse C5 [4] = biological target: T2, mouse C5; assay: SPR, pH 7.4
FcγRIIIb [5] = biological target: T3, FcγRIIIb (human, UniProt O75015); assay: SPR, pH 7.4
T3 chain: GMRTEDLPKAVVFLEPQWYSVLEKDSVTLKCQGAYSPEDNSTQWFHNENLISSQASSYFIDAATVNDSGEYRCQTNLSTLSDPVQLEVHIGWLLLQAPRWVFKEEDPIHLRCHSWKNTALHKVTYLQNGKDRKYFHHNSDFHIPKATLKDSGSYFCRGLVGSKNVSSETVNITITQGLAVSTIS

FcγRIIb/c = biological target: T4, FcγRIIb/c (human, UniProt P31994); assay: SPR, pH 7.4
T4 chain: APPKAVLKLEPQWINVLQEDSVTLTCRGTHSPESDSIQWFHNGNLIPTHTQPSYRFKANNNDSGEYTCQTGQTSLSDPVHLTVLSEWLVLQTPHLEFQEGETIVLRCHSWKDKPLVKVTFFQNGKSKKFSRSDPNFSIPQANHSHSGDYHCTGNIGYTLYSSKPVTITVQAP

FcγRIIa = biological target: T5, FcγRIIa (human, UniProt P12318); assay: SPR, pH 7.4
T5 chain: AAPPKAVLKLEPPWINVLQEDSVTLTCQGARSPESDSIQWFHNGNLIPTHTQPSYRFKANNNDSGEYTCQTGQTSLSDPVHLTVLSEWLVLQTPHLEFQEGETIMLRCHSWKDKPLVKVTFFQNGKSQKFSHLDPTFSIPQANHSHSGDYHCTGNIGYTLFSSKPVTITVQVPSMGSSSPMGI

FcγRI [6] = biological target: T6, FcγRI (human, UniProt P12314); assay: SPR, pH 7.4
T6 chain: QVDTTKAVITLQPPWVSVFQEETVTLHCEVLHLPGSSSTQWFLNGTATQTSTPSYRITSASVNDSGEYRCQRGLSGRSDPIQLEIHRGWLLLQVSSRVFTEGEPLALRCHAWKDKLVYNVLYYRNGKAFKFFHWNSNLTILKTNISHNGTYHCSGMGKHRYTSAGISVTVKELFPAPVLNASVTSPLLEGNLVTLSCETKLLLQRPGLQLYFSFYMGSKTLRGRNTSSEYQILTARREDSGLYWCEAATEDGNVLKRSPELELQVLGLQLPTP

FcγRIIIa [7] = biological target: T7, FcγRIIIa (human, UniProt P08637); assay: SPR, pH 7.4
FcγRI [8] = biological target: T6, FcγRI; assay: ELISA, immune complexes
FcγRIIIa [9] = biological target: T7, FcγRIIIa; assay: ELISA, immune complexes
FcγRIIIb [10] = biological target: T3, FcγRIIIb; assay: ELISA, immune complexes
[11] = biological target: the molecule itself; assay: SPR, pH 7.4, self-association, GMP batch
[12] = biological target: the molecule itself; assay: SPR, pH 7.4, self-association, engineering batch
mouse C5 [13] = biological target: T2, mouse C5; assay: SPR, pH 6.0

T7 sequence (P08637 17-208): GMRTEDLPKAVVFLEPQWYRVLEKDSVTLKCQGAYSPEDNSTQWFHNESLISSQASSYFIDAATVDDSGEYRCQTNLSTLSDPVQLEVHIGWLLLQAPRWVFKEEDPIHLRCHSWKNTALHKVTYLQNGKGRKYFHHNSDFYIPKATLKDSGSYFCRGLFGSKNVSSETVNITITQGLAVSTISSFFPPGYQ

B1: EHL004 (antibody, V domains shown)
VH: QVQLVQSGAEVKKPGASVKVSCKASGYIFSNYWIQWVRQAPGQGLEWMGEILPGSGHTEYTENFKDRVTMTRDTSTSTVYMELSSLRSEDTAVYYCARYFFGSSPNWYFDVWGQGTLVTVSS
VL: DIQMTQSPSSLSASVGDRVTITCGASENIYHALNWYQQKPGKAPKLLIYGATNLADGVPSRFSGSGSGTDFTLTISSLQPEDFATYYCQNVLNTPLTFGQGTKVEIK
- Kd (human C5 [1]): 0.000135 µM
- Kd (human C5 [2]): 0.374 µM

B2: EHL046 (antibody, V domains shown)
VH: B1 VH with Y27H, L52H, H57S
VL: B1 VL
- Kd (human C5 [1]): 0.00115 µM

B3: BHL011 (antibody, V domains shown)
VH: QVQLQQPGAELVRPGTSVKLSCKASGYTFTSSWMHWVKQRPGQGLEWIGVIDPSDSYTNYNQKFKGKATLTVDTSSSTAYMQLSSLTSEDSAVYYCARGGGSSYNRYFDVWGTGTTVTVSS
VL: NIMMTQSPSSLAVSAGEKVTMSCKSSQSVLYSSNQKNYLAWYQQKPGQSPKLLIYWASTRESGVPDRFTGSGSGTDFTLTISSVQAEDLAVYYCAQYLSSRTFGGGTKLEIKR
- Kd (mouse C5 [3]): 0.0536 µM
- Kd (mouse C5 [4]): 0.0952 nM

B4: BNJ441 (full length) (antibody)
chain 1: QVQLVQSGAEVKKPGASVKVSCKASGHIFSNYWIQWVRQAPGQGLEWMGEILPGSGHTEYTENFKDRVTMTRDTSTSTVYMELSSLRSEDTAVYYCARYFFGSSPNWYFDVWGQGTLVTVSSASTKGPSVFPLAPCSRSTSESTAALGCLVKDYFPEPVTVSWNSGALTSGVHTFPAVLQSSGLYSLSSVVTVPSSNFGTQTYTCNVDHKPSNTKVDKTVERKCCVECPPCPAPPVAGPSVFLFPPKPKDTLMISRTPEVTCVVVDVSQEDPEVQFNWYVDGVEVHNAKTKPREEQFNSTYRVVSVLTVLHQDWLNGKEYKCKVSNKGLPSSIEKTISKAKGQPREPQVYTLPPSQEEMTKNQVSLTCLVKGFYPSDIAVEWESNGQPENNYKTTPPVLDSDGSFFLYSRLTVDKSRWQEGNVFSCSVLHEALHSHYTQKSLSLSLGK
chain 2: DIQMTQSPSSLSASVGDRVTITCGASENIYGALNWYQQKPGKAPKLLIYGATNLADGVPSRFSGSGSGTDFTLTISSLQPEDFATYYCQNVLNTPLTFGQGTKVEIKRTVAAPSVFIFPPSDEQLKSGTASVVCLLNNFYPREAKVQWKVDNALQSGNSQESVTEQDSKDSTYSLSSTLTLSKADYEKHKVYACEVTHQGLSSPVTKSFNRGEC
- Kd (FcγRIIIb [5]): 3.33 µM
- Kd (FcγRIIb/c): 8.09 µM
- Kd (FcγRIIa): 2.31 µM
- Kd (FcγRI [6]): 3.75 µM
- Kd (FcγRIIIa [7]): 7.23 µM
- binding result (FcγRI [8]): no binding
- binding result (FcγRIIIa [9]): no binding
- binding result (FcγRIIIb [10]): no binding
- Kd [11]: 270 µM
- Kd [12]: 7100 µM

B5: eculizumab (full length) (antibody)
chain 1: B4 chain 1 with H27Y, H57S, L429M, S435N
chain 2: B4 chain 2
- Kd (FcγRIIb/c): 9.84 µM
- Kd (FcγRIIa): 2.58 µM

B6: BHL009 (antibody)
chain 1: QVQLQQPGAELVRPGTSVKLSCKASGYTFTSSWMHWVKQRPGQGLEWIGVIDPHDSYTNYNQKFKGKATLTVDTSSSTAYMQLSSLTSEDSAVYYCARGGGSSYNRYFDVWGTGTTVTVSSASTKGPSVFPLAPCSRSTSESTAALGCLVKDYFPEPVTVSWNSGALTSGVHTFPAVLQSSGLYSLSSVVTVPSSNFGTQTYTCNVDHKPSNTKVDKTVERKCCVECPPCPAPPVAGPSVFLFPPKPKDTLMISRTPEVTCVVVDVSQEDPEVQFNWYVDGVEVHNAKTKPREEQFNSTYRVVSVLTVLHQDWLNGKEYKCKVSNKGLPSSIEKTISKAKGQPREPQVYTLPPSQEEMTKNQVSLTCLVKGFYPSDIAVEWESNGQPENNYKTTPPVLDSDGSFFLYSRLTVDKSRWQEGNVFSCSVLHEALHSHYTQKSLSLSLGK
chain 2: not shown
- binding result (mouse C5 [13]): no binding
- Kd (mouse C5 [4]): 4.19 nM

B7: BHL006 (antibody)
chain 1: B6 chain 1 with L428M, S434N
chain 2: not shown
- binding result (mouse C5 [13]): no binding
- Kd (mouse C5 [4]): 3.49 nM
